Measured values: US5625031A, “Peptide inhibitors of the p33^cdk2 and p34^cdc2 cell cycle regulatory kinases and human papillomavirus E7 oncoprotein” (Bristol-Myers Squibb Company, priority 1994, dated 1997)
“Also recorded” adds a separate entry of the source.

Legend:
HPV18-E7 protein = molecular target: T1, HPV18-E7 protein (Human papillomavirus type 18, UniProt P06788); experiment: biochemical; assay type: binding; conditions: E7 type and method not stated
T1 construct: made in house
Protocol: The association of bacterially expressed HPV18-E7 protein with the p107 30mer peptide was analyzed using an ELISA assay. In the experiment depicted in FIG. 3A, a 96-well cluster plate was coated with p107 30mer peptide and incubated with increasing concentration of a MBP-E7 fusion protein or the MBP protein as a control. […] In the experiment depicted in FIG. 3B, MBP-E7 fusion protein (100 ng) was incubated with a p107 30mer peptide-coated plate in the presence of increasing concentrations of free p107 9mer peptide.

E7-Rb complex = molecular target: T2, E7-Rb complex (Human papillomavirus type 18, UniProt P06788); experiment: ELISA assay of competition for E7-Rb complex formation; assay type: binding; conditions: MBP-E7 coated plate, 100 ng Rb, increasing peptide concentrations
T2 construct: made in house; host or cells: bacteria (MBP-E7); baculovirus system (Rb)
Protocol: To examine the effect of p107 peptide binding upon the E7-Rb interaction, an ELISA assay was used to monitor E7-Rb complex formation. 96-well cluster plates were coated with either MBP-E7 protein (O) or MBP alone as a control (.circle-solid.). The plates were incubated with increasing concentrations of baculovirus expressed Rb which was detected with monoclonal antibody αRb349 (Pharmingen, San Diego Calif.) (FIG. 4A). In a separate experiment, 96-well cluster plates were coated with MBP-E7 protein and incubated with 100 ng Rb in the presence of increasing concentrations of p107 9mer peptide (FIG. 4B). Binding is quantitated as an increase in optical density at 405 nm. […] A corresponding peptide from Rb protein (sequence MCSMYGICK [SEQ ID NO: 2]) also binds to the E7 oncoprotein and competes for the E7-Rb interaction.

T2 sequence (P06788 whole entry, one chain of several): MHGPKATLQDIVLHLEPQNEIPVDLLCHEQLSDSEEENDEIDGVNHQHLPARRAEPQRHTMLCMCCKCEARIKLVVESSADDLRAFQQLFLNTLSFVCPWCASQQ
T1 sequence (P06788 whole entry): as the sequence (P06788 whole entry, one chain of several) above

MCSMYGICK [nine amino acid peptide derived from Rb]
binding to the E7 oncoprotein (HPV18-E7 protein): binds | competition for E7 association with Rb (E7-Rb complex): competes; also recorded: inhibits E7 binding to Rb
